Key:
[1] = target: T1, PTP1B (reduced, active) (Homo sapiens, UniProt P18031); assay: Direct effect of scFvs/antibodies on PTP1B phosphatase activity (32P-pTyr-RCML substrate); type: biochemical; details: 32P-labeled pTyr-RCML substrate, FIG. 1
T1 construct: made in house; host or cells: E. coli BL21 (pET19b)
T1 sequence (P18031 3-277 limits assumed): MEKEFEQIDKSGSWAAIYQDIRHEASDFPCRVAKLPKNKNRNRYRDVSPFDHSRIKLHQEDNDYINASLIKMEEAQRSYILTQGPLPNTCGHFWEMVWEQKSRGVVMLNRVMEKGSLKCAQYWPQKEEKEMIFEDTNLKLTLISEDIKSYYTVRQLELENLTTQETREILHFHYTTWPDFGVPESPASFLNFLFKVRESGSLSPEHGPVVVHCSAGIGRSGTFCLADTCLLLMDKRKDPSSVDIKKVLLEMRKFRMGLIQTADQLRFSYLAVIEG

[2] = target: T2, PTP1B-OX (Homo sapiens, UniProt P18031); assay: In vitro binding assay, purified recombinant PTP1B (37 kDa) and purified scFv, Ni-NTA pull down; details: purified proteins, scFv in molar excess, 2 hours at 4° C.; FIG. 9
T2 construct: made in house; host or cells: E. coli BL21 (pET19b)
T2 sequence (P18031 3-277): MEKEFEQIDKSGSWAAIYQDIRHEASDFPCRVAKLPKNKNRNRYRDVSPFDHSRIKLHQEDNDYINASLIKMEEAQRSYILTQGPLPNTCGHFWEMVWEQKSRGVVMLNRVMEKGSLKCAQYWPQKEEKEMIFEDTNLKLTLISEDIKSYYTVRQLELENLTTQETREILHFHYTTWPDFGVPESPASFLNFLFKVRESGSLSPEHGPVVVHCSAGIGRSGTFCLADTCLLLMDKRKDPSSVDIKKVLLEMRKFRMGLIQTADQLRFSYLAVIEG
Protocol: (§1) They established conditions in which PTP1B is reversibly oxidized by H2O2 in solution (FIG. 8). An artificial protein substrate RCML, in which tyrosine was phosphorylated with ^32P using recombinant GST-FER kinase was used in this assay to measure the phosphatase activity. Recombinant PTP (37 kDa) was incubated with increasing concentration (50 μM to 100 mM) of H2O2. A quick buffer exchange was done to remove the H2O2 and reducing agent (TCEP) was added to reactivate the enzyme.
(§2) In the in vitro binding assay, purified PTP was reversibly oxidized with […] followed by a quick buffer exchange to remove H2O2 (FIG. 8). Purified scFv was incubated in molar excess with PTP1B-OX or with PTP under reducing condition (with 2 mM TCEP) in binding buffer (20 mM HEPES, pH 7.4, 300 mM NaCl, 0.05% BSA, 0.05% Tween-20 and 10 mM imidazole) for 2 hours at 4° C. Ni-NTA agarose was added and incubated for one hour at 4° C. Protein complex bound to Ni-NTA agarose beads was pulled down and washed (three times, 5 minutes each, at 4° C.) with binding buffer containing 20 mM imidazole to reduce non-specific binding to the beads. The protein complex was eluted from the Ni-NTA agarose beads with 500 mM imidazole (in binding buffer, pH 7.4) for 15 minutes at 4° C. with gentle shaking. The complex was separated by SDS-PAGE and PTP1B was detected with anti-PTP1B antibody (FG6) and scFv was detected with anti-HA antibody [anti-HA (3F10)-HRP, Roche] by immunoblotting. Eight different scFvs (scFvs 20, 21, 24, 28, 45, 48, 57, and 105), expressed and purified from bacterial cultures were tested by this in vitro binding experiment.

[3] = target: T3, PTP1B under reducing condition (Homo sapiens, UniProt P18031); assay: In vitro binding assay, purified recombinant PTP1B (37 kDa) and purified scFv, Ni-NTA pull down, reducing condition; details: with 2 mM TCEP; FIG. 9
T3 construct: made in house; host or cells: E. coli BL21 (pET19b)
T3 sequence (P18031 3-277 limits assumed): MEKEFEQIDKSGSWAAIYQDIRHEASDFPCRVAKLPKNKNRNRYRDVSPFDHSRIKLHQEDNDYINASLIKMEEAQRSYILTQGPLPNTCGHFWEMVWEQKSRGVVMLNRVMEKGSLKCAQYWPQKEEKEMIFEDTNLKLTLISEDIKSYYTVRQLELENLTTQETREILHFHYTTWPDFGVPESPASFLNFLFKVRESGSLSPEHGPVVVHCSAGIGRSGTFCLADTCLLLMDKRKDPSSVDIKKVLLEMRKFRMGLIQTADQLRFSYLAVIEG
Protocol: as §1, §2

Row | Molecule | direct effect on PTP1B activity [1] | binding to PTP1B-OX in vitro [2] | binding to PTP1B under reducing condition in vitro [3]
1 | scFv45: conformation-sensor scFv binding PTP1B-OX, SEQ ID NO: 26 and 78; expressed as intrabody (protein) scFv: MKKTAIAIAVALAGFATVAQAALTQPSSVSANPGGTVKITCSGSSSAYGYGWYQQKSPGSAPVTVIYNNNKRPSNIPSRFSGSKSGSTGTLTITGVQAEDEAVYFCGSEDSSTDAIFGAGTTLTVLGQSSRSSTVTLDESGGGLQAPGGALSLVCKASGFTFSSYDMGWIRQAPGKGLEYVAGITDNGRYASYGSAVDGRATISRDNGQSSVRLQLNNLRAEDTGTYYCARDDGSGWTGNSIDAWGHGTEVIVSSTSGQAGQHHHHHHGAYPYDVPDYAS | no direct inhibition of PTP activity | specific binding to PTP1B-OX | not to PTP under reducing condition
2 | scFv57: scFv binding PTP1B-OX, SEQ ID NO: 27 and 90 (protein) scFv: MKKTAIAIAVALAGFATVAQAALTQPSSVSANPGAFNKITCSGSSSAYGYGWNQQKSPGSAPVTVIYNNNKRPSNIPSRFSGSKSGSTGTLTITGDQDEDEDFYFCGSEYSSTDAIFGAGTTLTVLGQSSRSSTVTLDESGGGLQAPGGALSLVCKASGFTFSSYDMGWIPQAPGKGLEYVAGITDNGIYASYGSAVDGRATISRDNRQSSVKLQLNNLKADDTGTYYCARDDGSGWTGNSIDAWGHGTEVIVSSTSGQAGQHHHHHHGAYPYDVPDYAS | no direct inhibition of PTP activity | specific binding to PTP1B-OX | not to PTP under reducing condition

Reference: US9074002B2, “PTP1B inhibitors” (Cold Spring Harbor Laboratory, priority 2009, dated 2015)
